Earlier results, collected in publication PMC10330345.

Molecular target: BTN3A1 272-513 (Homo sapiens) (UniProt O00481)
Assay: ITC

Chain of BTN3A1 272-513 (Homo sapiens) (O00481 272-513): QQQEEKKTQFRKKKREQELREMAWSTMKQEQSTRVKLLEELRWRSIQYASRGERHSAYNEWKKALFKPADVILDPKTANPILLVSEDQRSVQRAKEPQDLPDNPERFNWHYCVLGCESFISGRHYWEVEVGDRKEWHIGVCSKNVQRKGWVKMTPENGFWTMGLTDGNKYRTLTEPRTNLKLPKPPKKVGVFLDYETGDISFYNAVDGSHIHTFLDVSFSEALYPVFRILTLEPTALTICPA

Kd: 890 nM
Substance: BTN2A1 271-527 (from UniProt Q7KYR7)
